Data set [1] concerns the target T1, FDC1 (Saccharomyces cerevisiae, UniProt Q03034).
T1 construct: N-terminal 6xHis leader of vector pDEST17 (own knowledge of the vector); made in house; host or cells: E. coli BL21 (DE3)
T1 sequence (Q03034 1-503): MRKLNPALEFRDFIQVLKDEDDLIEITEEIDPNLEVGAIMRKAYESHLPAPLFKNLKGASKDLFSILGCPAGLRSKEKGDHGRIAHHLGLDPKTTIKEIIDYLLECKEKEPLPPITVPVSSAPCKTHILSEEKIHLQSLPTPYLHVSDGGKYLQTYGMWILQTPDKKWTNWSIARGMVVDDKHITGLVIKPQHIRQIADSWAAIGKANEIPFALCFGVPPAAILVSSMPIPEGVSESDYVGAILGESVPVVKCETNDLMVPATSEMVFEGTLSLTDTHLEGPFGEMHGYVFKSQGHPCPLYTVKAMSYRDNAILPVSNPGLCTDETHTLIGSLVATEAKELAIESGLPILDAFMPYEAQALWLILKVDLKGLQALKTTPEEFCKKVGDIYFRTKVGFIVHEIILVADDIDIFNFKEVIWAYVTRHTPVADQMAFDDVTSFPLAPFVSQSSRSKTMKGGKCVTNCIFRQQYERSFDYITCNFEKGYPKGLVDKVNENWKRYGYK
The data set is described as follows: pH stability of FDC1. Particulars: incubated for 30 minutes at pH 6.0 prior to the reaction. It counts as biochemical. As for the experimental part:
The protein (crude extract, 586 μL) was added to 112 μL of 500 mM buffers at pH values of 5, 6, 7, 8, 9, 10, and 11, and incubated at 30° C. for 30 minutes. After treated in various pH buffers, an aliquot of protein (42 mg) was added to a final concentration of 100 mM potassium phosphate buffer pH 6.5, 5 mM DTT, 1.4 mM cinnamic acid and brought up to a final volume of 2 mL. The reaction mixture was then incubated for 8 minutes at 30° C. The styrene was extracted by the addition of 250 μL butanol. The experimental negative control used the same conditions except the reaction mixture contained no substrate. […] This protein is stable and active in a wide range of pH and can be used for industrial production of styrene.

The test system of data set [2] is styrene production. The experiment in a line: Expression of FDC-PAL2 fusion protein in E. coli, styrene in medium. In kind it is cell-based. Particulars: expressed in E. coli. The source says:
Artificial channels were included in the styrene production. To construct the fusion protein of PAL2 and FDC using Gateway technology, four primers were designed for PCR amplification. […] The FDC gene (˜1.5 kb) and the PAL2 gene (2.2 kb) were amplified using the above primers and cloned into the Gateway vector pDEST17. The constructs of the fusion protein of PAL2 and FDC were transformed to BL21(DE3). Fusion proteins of FDC mutant and PAL also can be obtained by the above process.
This fusion protein produced styrene at an amount that was about 6-fold higher than that of FDC expressing in E. coli (95 mg/Lin medium). This amount of styrene was also much higher than that of non-fused proteins of PAL2 and FDC (expressed in yeast, with 69 mg/L styrene detected).

The test system of data set [3] is styrene production. The data set is described as follows: Styrene production by wild type FDC1 in anaerobic versus aerobic condition. It counts as cell-based. As for the experimental part: Production of styrene by maintaining the culture in an aerobic environment was conducted. […] Using the STRATA-X® column, we can trap the volatile styrene and can maintain aerobic conditions.

The target in data set [4] is T1, FDC1. The data set is described as follows: Kinetic analysis of purified wild type FDC1 (tCA to styrene, HPLC). In kind it is biochemical. Conditions: for Km / Vmax: tCA as substrate (100-2000 μM), 0.5 mg purified protein, 5 min at 30° C. On the procedure: The standard reaction mixture for decarboxylation consisted of 25 mM potassium phosphate buffer (pH 6.5) containing 5 mM dithiothreitol, 1.4 mM trans-cinnamic acid and enzyme (0.50 mg) to a final volume of 1.0 mL. The reaction was started by the addition of the enzyme and was incubated at 30° C. for 5 min. The reaction was stopped by adding 24 μl of glacial acetic acid (17.4N) after which 2-propanol was added in equal volume to the reaction mixture in order to solubilize the product. The amount of styrene produced was measured by HPLC using a Dionex Ultimate3000 UHPLC equipped with an auto sampler, diode array (UV/Vis) detector, and reverse phase Acclaim 120 C18 column (2.1×150 […] Dionex USA). Samples (10 μl) were injected for analyses at a total constant flow rate of 0.6 ml/minute. The samples were resolved in 0.15% acetic acid (A) with an increasing concentration gradient of acetonitrile containing 0.15% acetic acid (B) for 0 to 4 min, 5%; 4 to 5 minutes, 5 to 40%; 5 to 7 min, 40 to 45%; 7 to 8 min, 45 to 85%; 8 to 12 min, 85 to 95%; 12 to 14 minutes, 95 to 5% at a flow rate of […]. The specific activity was expressed in U (nmol styrene)·mg^−1·min^−1.
To examine the catalytic efficiency of this protein, kinetic studies of FDC1 was conducted using tCA as the substrate. […] The reactions were performed in a total of 1.0 mL standard reaction mixture with 0.5 mg purified protein, and were allowed to proceed for 5 min at 30° C. The styrene was extracted with 250 μL butanol. The experimental negative control used the same conditions except the reaction mixture contained no substrate. Activities were quantified by standard assay method. Duplicate assays were performed and averaged. The Vmax and Km were determined by nonlinear regression analysis of the velocity-concentration data fit to the Michaelis-Menten equation.

In data set [5] the target is T1, FDC1. The data set is described as follows: Temperature stability of FDC1. In kind it is biochemical. As for the experimental part:
After incubation at various temperatures, an aliquot of protein (42 mg) was added to 25 mM potassium phosphate buffer pH 6.5, 5 mM DTT, and 1.4 mM tCA to a final volume of 1 mL. The reaction mixtures were incubated for 8 minutes at 30° C. The styrene was extracted with 250 μl butanol and quantified by HPLC using C18 column. The experimental negative control used the same conditions except the reaction mixture contained no substrate. The enzyme was stable at 50° C. (FIG. 7).
After the protein was incubated for various times, an aliquot (42 mg) was added to 25 mM potassium phosphate buffer pH 6.5, 5 mM DTT, and 1.4 mM tCA to a final volume of 1 mL. The reaction mixtures were then incubated for 8 minutes at 30° C. Styrene was extracted by adding 250 μL butanol to the reaction mixtures and quantified by HPLC. The experimental negative control used the same conditions except the reaction mixture contained no substrate. The protein was stable at 50° C. for 2 hr (FIG. 8).

Data set [6] deals with styrene production. The experiment in a line: Production of styrene from trans-cinnamic acid in E. coli BL-21 (DE3). It counts as cell-based. Particulars: fed 0.1% trans-cinnamic acid, 36 hours, STRATA X column. As for the experimental part: The nucleotides encoding FDC wild type, FDC mutant (K190E), FDC (WT)-PAL fusion protein, and FDC (K190E)-PAL fusion protein were transformed in E. coli BL-21 (DE3). The cells were grown in LB at 30° C. for overnight. The cells were harvested and washed with M9 media. The cells were inoculated to 2.0 ml M9 media with the initial OD600 at 0.3 and were cultured at 30° C. until the OD600 of the culture reached to 0.6 to 0.8. The cells were then induced with 0.2 mM IPTG for 8.0 hours at 30° C. The cells transformed with FDC wild type and FDC (K190E) were fed with 0.1% trans-cinnamic acid. The cells transformed with FDC (WT)-PAL and FDC (K190E)-PAL fusion proteins were fed with either 0.1% trans-cinnamic acid or 0.1% L-phenylalanine. The fed cells were continuously cultured for 36 hours. STRATA X column was used to collect styrene. The product was eluted from the column by butanol and the amount was quantified by HPLC.

Data set [7] concerns styrene production. The data set is described as follows: Styrene production by FDC1 mutants from tCA (colorimetric screening, confirmed by HPLC). In kind it is cell-based. Conditions: E. coli cells, tCA 1 g/L, 30° C. for 4 hours. On the procedure:
Saturation mutagenesis allows the change of one amino acid to 19 other alternative amino acid residues. […] The codon NNK has 32-fold degeneracy and encodes all 20 amino acids without rare codons. The QuikChange PCR products were examined by agarose gel electrophoresis and then 15 μl of PCR products were digested with 1 μl Dpnl (New England Biolabs) at 37° C. for 4 hours to remove the template plasmid. Aliquots of (2 μl) digestive products were transformed into BL21-Gold (DE3) competent cells (STRATAgene, CA) and inoculated on Luria-Bertani (LB) agar plates containing kanamycin. The quality of the library by DNA sequencing was confirmed. The library covers 90% of mutagenesis (17 mutants out of 19). To cover 100% (19 out of 19 mutant), we screened 150 mutants for each site.
The transformants (Example II.2) were inoculated in 96-well plates (NUNC, Roskilde, Denmark) containing 100 μl LB broth per well and incubated at 37° C., overnight. The cultures were then mixed with equal amount of 50% glycerol and stored at −80° C. as the master plate. An aliquot of 10 μl culture was inoculated in 2 ml deep-well plates (USA scientific) with 1 ml TB broth per well and incubated at 37° C. until the OD600 reached 1.0. The cultures were then induced by 0.2 mM IPTG and incubated at 18° C. for 20 hours with shaking at 250 rpm.
Cells were harvested and suspended with 0.25 ml PBS buffer at pH 7.0 and the substrate (tCA) was added at a final concentration of 1 g/L. The culture was incubated at 30° C. for 4 hours and the volatile product styrene was collected by using 96 well STRATA-X® reversed phase plate containing 10 mg polymer based resin (Phenomenex) on top of the culture plate (FIG. 19). To avoid styrene vapor diffusion, 96-square well silicone sealing mats with pre-slit were used between 96-well culture plate and 96 well STRATA-X® reversed phase plate. The product was collected by 200 μl propanol for each well and the amount of product was measured by colorimetric method.
Various chemicals were tested as an indicator for styrene detection, including NBP (4-nitrobenzyl-pyridine) as a preferred indicator. Styrene was mixed with cytochrome P450 BM-3 in 50 mM phosphate buffer pH 8.0. The styrene oxidation reaction was started by adding 0.2 mM NADPH, and the reaction mixture was incubated at room temperature for 5 minutes with shaking. The NBP solution was added to the mixture and incubated at room temperature for further 5 minutes with shaking which gives white precipitate. The tube or plate containing reaction mixtures were heated at 70° C. for 30 minutes and chilled on ice for 5 minutes. After adding Dimethylformamide (150 μl) and 25 μl of 1M K2CO3, the reaction mixture gave blue color that can be measured spectrophotometrically at 600 nm immediately. The […] of NBP reacts with the oxirane ring of styrene oxide to yield a blue chromophore a blue color that can be monitored spectrophotometrically at 600 nm.
The mutants showing higher activity were confirmed by HPLC using an ACQUITY UPLC BEH C18 column (1.7-μm, 2.1×50-mm, Waters, USA). The samples were resolved in 30% acetonitrile (A) with an increasing concentration gradient of acetonitrile (B) for 1 min, 95%; then to 1 min, 30%; at a flow rate of 1 ml/min. UV absorption was monitored at 254-, 280-, and 310-nm. The changed amino acid residues in the mutants showing the higher activity were confirmed by DNA sequence.

Positions count from the first letter of the chain named. Numbers in names are those of the source.

The Km is the concentration of substrate that gives half-maximal velocity. For orientation: Vmax means the top rate of the reaction or transport when substrate is in excess.

B1: FDC1: Saccharomyces cerevisiae cinnamic acid decarboxylase, also termed ferulic acid decarboxylase; 503 amino acids, SEQ ID NO:8 (protein, listed as Saccharomyces cerevisiae)
chain: T1 sequence (Q03034 1-503)
As to B1, the “relative activity after incubation at pH 6.0” value in the data set with FDC1 [1] was found to be 100%. The styrene in medium in the data set with styrene production [2] came to 95 mg/L. Besides, in the data set with styrene production [3], the “amount of styrene in anaerobic condition compared to aerobic condition” value was “half the amount of styrene”. The catalytic efficiency with FDC1 [4] (tCA as substrate) amounted to 8.4 M^−1 S^−1. In the data set with FDC1 [4] (listed as wild type FDC), the Michaelis constant (Km) was roughly 688 µM and the Vmax entry was “about 6.17 nmol·mg^−1·min^−1”. In the data set with FDC1 [4] (listed as wild type FDC1), the Km worked out at 688 µM and the Vmax worked out at 6.17 nmol/mg/min. The molecule further returned an activity retained with FDC1 [5] (after incubation at 50° C. for about 2 hours) of 100%. For the same molecule, in the data set with FDC1 [5] (crude extract incubated at 50° C. for 2 hr), the “stability at 50° C. over time” value is given as “stable”. In the data set with FDC1 [5] (incubated 30 minutes at 50° C. prior to reaction), the temperature stability entry is recorded as “stable”. Moreover, the “relative activity after incubation at 50° C.” value with FDC1 [5] (incubated at 50° C. for 30 minutes prior to the reaction) amounted to 100%.

B2: K190E (protein)
chain: T1 sequence (Q03034 1-503) with K190E
In the data set on styrene production [6], B2 had a styrene produced of 758 mg/L. For the same molecule, in the data set with styrene production [7], the “amount of styrene compared to that of wild type (in words)” value is on record as “significantly higher amount of styrene” and the “styrene produced compared to wild type” value turned out to be 3 times.
